Experimental data from patent US20140087995A1 (published 2014).
Numbered stars: 1 amine (or outer) side, 2 acyl side, 3 side chain; on linkers, the order of the positions; unused ones are H or OH. Bridge positions count the residues as written; N and C are the ends. Square brackets hold non-standard residues; d marks the D form. Side chains are listed from the residue outwards. Ends that are not written are not given here. * marks the point of attachment. C20 diacid = O=C(O)CCCCCCCCCCCCCCCCCCC(=O)*; γGlu = O=C(O)[C@H](CCC(=O)[*:2])N[*:1]

T1: human amylin receptor (amylin 3(a) receptor: human calcitonin receptor co-expressed with RAMP-3) (human, UniProt P30988 25-474; O60896 24-148, limits assumed)
T1 construct: whole, on cells; also called hAmylin-R; hAmylinR
T1 sequence (looked up) 1: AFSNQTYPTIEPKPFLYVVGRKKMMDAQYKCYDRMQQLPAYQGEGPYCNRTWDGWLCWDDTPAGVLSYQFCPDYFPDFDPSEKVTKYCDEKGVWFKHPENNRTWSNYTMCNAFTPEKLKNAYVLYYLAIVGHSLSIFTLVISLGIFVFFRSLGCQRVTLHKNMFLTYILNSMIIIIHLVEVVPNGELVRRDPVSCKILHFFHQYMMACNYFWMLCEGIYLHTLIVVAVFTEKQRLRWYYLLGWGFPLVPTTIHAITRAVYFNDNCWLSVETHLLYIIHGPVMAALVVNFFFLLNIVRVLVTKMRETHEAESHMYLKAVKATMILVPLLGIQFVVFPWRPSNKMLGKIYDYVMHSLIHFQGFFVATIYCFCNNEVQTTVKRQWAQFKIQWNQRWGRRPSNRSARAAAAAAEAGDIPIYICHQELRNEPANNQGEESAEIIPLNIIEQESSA
T1 sequence (looked up) 2: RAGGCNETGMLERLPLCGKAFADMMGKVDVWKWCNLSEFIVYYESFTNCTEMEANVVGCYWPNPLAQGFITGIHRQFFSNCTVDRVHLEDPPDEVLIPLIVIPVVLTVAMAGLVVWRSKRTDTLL

T2: rat amylin receptor (rat calcitonin receptor + rat RAMP 3) (rat, UniProt P32214 25-516; Q9JJ73 23-147)
T2 construct: whole, on cells; Used as membranes prepared from transiently transfected BHK tk'ts 13 cells (Assay VI); also called rAmylin-R; rat amylin 3(a) receptor
T2 sequence (looked up) 1: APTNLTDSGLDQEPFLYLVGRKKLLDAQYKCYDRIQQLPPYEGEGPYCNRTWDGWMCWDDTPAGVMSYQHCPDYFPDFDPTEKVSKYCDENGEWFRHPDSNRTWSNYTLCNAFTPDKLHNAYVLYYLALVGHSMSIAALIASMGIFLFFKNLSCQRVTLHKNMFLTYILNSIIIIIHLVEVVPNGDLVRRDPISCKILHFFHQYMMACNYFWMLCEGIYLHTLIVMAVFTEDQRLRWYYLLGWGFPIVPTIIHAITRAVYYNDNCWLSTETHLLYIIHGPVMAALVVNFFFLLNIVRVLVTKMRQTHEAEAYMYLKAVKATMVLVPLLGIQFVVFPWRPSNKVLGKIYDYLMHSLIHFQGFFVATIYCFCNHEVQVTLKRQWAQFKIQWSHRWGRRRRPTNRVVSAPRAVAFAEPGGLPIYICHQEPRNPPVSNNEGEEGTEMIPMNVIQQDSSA
T2 sequence (looked up) 2: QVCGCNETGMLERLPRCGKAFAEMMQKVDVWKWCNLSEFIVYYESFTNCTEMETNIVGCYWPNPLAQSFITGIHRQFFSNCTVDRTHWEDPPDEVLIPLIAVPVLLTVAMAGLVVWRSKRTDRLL

T3: rat calcitonin receptor (rat, UniProt P32214 25-516)
T3 construct: whole, on cells; Used as membranes prepared from transiently transfected BHK tk'ts 13 cells (Assay VIII); also called rCTR; rat calcitonin (a) receptor
T3 sequence (looked up): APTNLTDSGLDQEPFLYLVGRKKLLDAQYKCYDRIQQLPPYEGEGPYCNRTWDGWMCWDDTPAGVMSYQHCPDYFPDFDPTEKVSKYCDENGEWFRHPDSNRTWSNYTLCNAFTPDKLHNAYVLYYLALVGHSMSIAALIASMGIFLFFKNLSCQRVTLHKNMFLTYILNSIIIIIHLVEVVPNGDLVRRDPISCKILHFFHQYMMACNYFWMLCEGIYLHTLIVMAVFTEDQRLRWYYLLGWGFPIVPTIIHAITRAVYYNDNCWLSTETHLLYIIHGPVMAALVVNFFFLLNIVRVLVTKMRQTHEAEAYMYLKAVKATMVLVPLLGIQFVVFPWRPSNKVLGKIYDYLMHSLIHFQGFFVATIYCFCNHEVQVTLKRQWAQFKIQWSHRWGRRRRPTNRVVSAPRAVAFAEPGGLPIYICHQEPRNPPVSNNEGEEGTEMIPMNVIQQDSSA


What was measured:
[1] = target: T1, human amylin receptor (amylin 3(a) …); test: SPA competition binding, membranes of Amylin 3(a)/CRE-luc BHK cells, displacement of 125I-rat amylin (Assay V)
Summary of the method: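 Cell membranes were prepared by homogenisation in Na-HEPES/EDTA buffer, pH 7.4, and stored at −80° C. They were then coupled to SPA beads at 35 ng/μL final and exposed to compounds in assay buffer containing CaCl2, MgCl₂, OA and Tween20. After 120 min at 25° C, plates were counted and IC₅₀ derived.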

[2] = target: T2, rat amylin receptor (rat calcitonin …); test: SPA competition binding, displacement of 125I-rat amylin from membranes of BHK tk'ts 13 cells with rat calcitonin receptor + rat RAMP 3 (Assay VI)
[3] = target: T3, rat calcitonin receptor; test: SPA competition binding, displacement of 125I-calcitonin from membranes of BHK tk'ts 13 cells with rat calcitonin receptor (Assay VIII)

IC50 [1] [nM]	IC50 [2] [nM]	IC50 [3] [nM]	Binder
0.533	–	–	K([γGlu-γGlu-C20 diacid])CNTATCATQRLAEFLRHSSPNFGAIPSSTNVGPETP-NH2 (disulfide 2-7; N-terminus assumed; SMILES CC[C@H](C)[C@H](NC(=O)[C@H](C)NC(=O)CNC(=O)[C@H](Cc1ccccc1)NC(=O)[C@H](CC(N)=O)NC(=O)[C@@H]1CCCN1C(=O)[C@H](CO)NC(=O)[C@H](CO)NC(=O)[C@H](Cc1c[nH]cn1)NC(=O)[C@H](CCCNC(=N)N)NC(=O)[C@H](CC(C)C)NC(=O)[C@H](Cc1ccccc1)NC(=O)[C@H](CCC(=O)O)NC(=O)[C@H](C)NC(=O)[C@H](CC(C)C)NC(=O)[C@H](CCCNC(=N)N)NC(=O)[C@H](CCC(N)=O)NC(=O)[C@@H](NC(=O)[C@H](C)NC(=O)[C@@H]1CSSC[C@H](NC(=O)[C@@H](N)CCCCNC(=O)CC[C@H](NC(=O)CC[C@H](NC(=O)CCCCCCCCCCCCCCCCCCC(=O)O)C(=O)O)C(=O)O)C(=O)N[C@@H](CC(N)=O)C(=O)N[C@@H]([C@@H](C)O)C(=O)N[C@@H](C)C(=O)N[C@@H]([C@@H](C)O)C(=O)N1)[C@@H](C)O)C(=O)N1CCC[C@H]1C(=O)N[C@@H](CO)C(=O)N[C@@H](CO)C(=O)N[C@H](C(=O)N[C@@H](CC(N)=O)C(=O)N[C@H](C(=O)NCC(=O)N1CCC[C@H]1C(=O)N[C@@H](CCC(=O)O)C(=O)N[C@H](C(=O)N1CCC[C@H]1C(N)=O)[C@@H](C)O)C(C)C)[C@@H](C)O)
–	1.69	536	K([γGlu-γGlu-C20 diacid])CNTATCATQRLA[dD]FLRHSSPNFGAIPSSTNVGSRTY-NH2 (disulfide 2-7 (inferred), Residue 14 is the D-isomer of Asp)
